Target: T1, full-length human MICAL1 (human) (UniProt Q8TDZ2)
T1 sequence: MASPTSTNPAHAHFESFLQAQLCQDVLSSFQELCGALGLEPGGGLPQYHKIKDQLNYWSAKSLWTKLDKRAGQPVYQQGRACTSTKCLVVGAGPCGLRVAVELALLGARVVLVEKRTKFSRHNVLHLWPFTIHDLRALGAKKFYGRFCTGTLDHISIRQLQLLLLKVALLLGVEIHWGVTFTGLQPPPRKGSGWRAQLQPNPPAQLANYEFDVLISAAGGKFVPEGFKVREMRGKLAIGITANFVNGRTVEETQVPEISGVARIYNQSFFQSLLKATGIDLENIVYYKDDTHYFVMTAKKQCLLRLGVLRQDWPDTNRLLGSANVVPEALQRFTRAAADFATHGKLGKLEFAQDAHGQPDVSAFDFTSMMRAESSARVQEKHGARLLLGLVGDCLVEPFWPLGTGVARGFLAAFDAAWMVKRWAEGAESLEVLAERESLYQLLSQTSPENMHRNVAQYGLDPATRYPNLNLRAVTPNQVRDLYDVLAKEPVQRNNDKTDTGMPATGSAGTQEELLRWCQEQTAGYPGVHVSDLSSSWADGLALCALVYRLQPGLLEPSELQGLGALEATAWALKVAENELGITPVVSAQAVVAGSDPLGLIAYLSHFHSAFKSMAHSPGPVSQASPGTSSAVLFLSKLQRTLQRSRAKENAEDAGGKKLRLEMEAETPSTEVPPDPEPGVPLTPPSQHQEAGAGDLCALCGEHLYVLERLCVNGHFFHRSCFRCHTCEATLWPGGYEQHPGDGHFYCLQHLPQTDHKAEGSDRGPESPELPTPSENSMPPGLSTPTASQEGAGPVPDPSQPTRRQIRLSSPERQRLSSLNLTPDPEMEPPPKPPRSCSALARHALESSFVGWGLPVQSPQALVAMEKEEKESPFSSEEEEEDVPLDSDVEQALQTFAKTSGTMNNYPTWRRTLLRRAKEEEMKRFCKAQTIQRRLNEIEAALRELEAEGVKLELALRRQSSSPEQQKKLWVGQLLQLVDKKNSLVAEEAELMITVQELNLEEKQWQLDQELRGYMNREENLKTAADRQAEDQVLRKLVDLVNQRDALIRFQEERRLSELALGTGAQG

- fold enhancement of NADPH turnover of MICAL1 (0.5 μM) on adding Rab8a (40 μM): 4 fold
Substance: human Rab8a 1-181 with the constitutively active mutation Q67L (from UniProt P61006 1-181) (domain or fragment)

Source: paper PMC11315924
